Kd data for 27 molecules are collected here from PMC10786891, “Massively parallel profiling of RNA-targeting CRISPR-Cas13d”.

The labels stand for the following.
T1: EsCas13d, nuclease-dead (Eubacterium siraeum, UniProt B0MS50, R295A;H300A;R849A;H854A)
T1 sequence: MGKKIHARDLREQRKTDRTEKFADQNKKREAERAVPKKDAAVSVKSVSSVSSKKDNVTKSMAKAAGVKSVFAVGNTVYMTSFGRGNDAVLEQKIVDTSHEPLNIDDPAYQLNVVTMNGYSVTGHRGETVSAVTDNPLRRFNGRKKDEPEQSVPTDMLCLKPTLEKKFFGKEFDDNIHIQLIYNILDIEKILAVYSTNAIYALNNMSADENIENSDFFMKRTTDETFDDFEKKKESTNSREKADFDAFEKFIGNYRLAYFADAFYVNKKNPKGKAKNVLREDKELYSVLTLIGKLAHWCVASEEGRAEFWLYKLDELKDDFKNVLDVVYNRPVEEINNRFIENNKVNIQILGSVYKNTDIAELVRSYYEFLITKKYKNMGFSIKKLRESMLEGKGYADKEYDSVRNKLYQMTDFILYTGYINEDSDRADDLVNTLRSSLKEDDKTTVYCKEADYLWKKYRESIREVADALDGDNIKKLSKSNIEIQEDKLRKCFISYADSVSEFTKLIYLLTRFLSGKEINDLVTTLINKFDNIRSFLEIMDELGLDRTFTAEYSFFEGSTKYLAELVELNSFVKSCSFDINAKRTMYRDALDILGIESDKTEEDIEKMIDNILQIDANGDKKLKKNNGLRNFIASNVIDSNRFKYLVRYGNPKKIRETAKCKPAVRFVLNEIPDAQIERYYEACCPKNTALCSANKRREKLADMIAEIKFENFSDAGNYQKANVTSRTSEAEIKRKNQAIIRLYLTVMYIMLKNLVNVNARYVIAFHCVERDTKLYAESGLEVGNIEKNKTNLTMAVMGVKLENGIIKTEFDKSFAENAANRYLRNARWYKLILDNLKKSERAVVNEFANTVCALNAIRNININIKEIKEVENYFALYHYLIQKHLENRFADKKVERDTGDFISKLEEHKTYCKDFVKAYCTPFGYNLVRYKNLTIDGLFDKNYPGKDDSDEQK

B1: target 1 C2A,A18G (mixed)
RNA 1: CACCCGUGCAAAAAUGCAGGGGUCUAAAACUGAGCGGAUAACCUCUCUAUGG
RNA 2: GGGAAUGGAUCCACAUCUACGAAUUCGUACCAUGGAGAGGUUAUCCGCUAACCGAGAUCGGAAGAGCACACGU
B2: target 1 insU 3' of 22,insC 3' of 5 (mixed)
RNA 1: CACCCGUGCAAAAAUGCAGGGGUCUAAAACUGAGCGGAUAACCUCUCUAUGG
RNA 2: GGGAAUGGAUCCACAUCUACGAAUUCGUACUCAUAGAGAGGUUAUCCGCCUCACCGAGAUCGGAAGAGCACACGU
B3: target 1 insG 3' of 21,insU 3' of 18 (mixed)
RNA 1: CACCCGUGCAAAAAUGCAGGGGUCUAAAACUGAGCGGAUAACCUCUCUAUGG
RNA 2: GGGAAUGGAUCCACAUCUACGAAUUCGUACCGAUAUGAGAGGUUAUCCGCUCACCGAGAUCGGAAGAGCACACGU
B4: target 1 G12A,A20U (mixed)
RNA 1: CACCCGUGCAAAAAUGCAGGGGUCUAAAACUGAGCGGAUAACCUCUCUAUGG
RNA 2: GGGAAUGGAUCCACAUCUACGAAUUCGUACCUUAGAGAGAUUAUCCGCUCACCGAGAUCGGAAGAGCACACGU
B5: target 1 insC 3' of 22,insG 3' of 8 (mixed)
RNA 1: CACCCGUGCAAAAAUGCAGGGGUCUAAAACUGAGCGGAUAACCUCUCUAUGG
RNA 2: GGGAAUGGAUCCACAUCUACGAAUUCGUACCCAUAGAGAGGUUAUGCCGCUCACCGAGAUCGGAAGAGCACACGU
B6: target 1 A9U,G15A (mixed)
RNA 1: CACCCGUGCAAAAAUGCAGGGGUCUAAAACUGAGCGGAUAACCUCUCUAUGG
RNA 2: GGGAAUGGAUCCACAUCUACGAAUUCGUACCAUAGAAAGGUUUUCCGCUCACCGAGAUCGGAAGAGCACACGU
B7: target 1 C7G,G12C (mixed)
RNA 1: CACCCGUGCAAAAAUGCAGGGGUCUAAAACUGAGCGGAUAACCUCUCUAUGG
RNA 2: GGGAAUGGAUCCACAUCUACGAAUUCGUACCAUAGAGAGCUUAUGCGCUCACCGAGAUCGGAAGAGCACACGU
B8: target 1 insG 3' of 18,insG 3' of 9 (mixed)
RNA 1: CACCCGUGCAAAAAUGCAGGGGUCUAAAACUGAGCGGAUAACCUCUCUAUGG
RNA 2: GGGAAUGGAUCCACAUCUACGAAUUCGUACCAUAGGAGAGGUUAGUCCGCUCACCGAGAUCGGAAGAGCACACGU
B9: target 1 insU 3' of 14,insG 3' of 11 (mixed)
RNA 1: CACCCGUGCAAAAAUGCAGGGGUCUAAAACUGAGCGGAUAACCUCUCUAUGG
RNA 2: GGGAAUGGAUCCACAUCUACGAAUUCGUACCAUAGAGAUGGUGUAUCCGCUCACCGAGAUCGGAAGAGCACACGU
B10: target 1 insC 3' of 22,insA 3' of 19 (mixed)
RNA 1: CACCCGUGCAAAAAUGCAGGGGUCUAAAACUGAGCGGAUAACCUCUCUAUGG
RNA 2: GGGAAUGGAUCCACAUCUACGAAUUCGUACCCAUAAGAGAGGUUAUCCGCUCACCGAGAUCGGAAGAGCACACGU
B11: target 1 U8A,A16G (mixed)
RNA 1: CACCCGUGCAAAAAUGCAGGGGUCUAAAACUGAGCGGAUAACCUCUCUAUGG
RNA 2: GGGAAUGGAUCCACAUCUACGAAUUCGUACCAUAGGGAGGUUAACCGCUCACCGAGAUCGGAAGAGCACACGU
B12: target 1 insA 3' of 17,insG 3' of 14 (mixed)
RNA 1: CACCCGUGCAAAAAUGCAGGGGUCUAAAACUGAGCGGAUAACCUCUCUAUGG
RNA 2: GGGAAUGGAUCCACAUCUACGAAUUCGUACCAUAGAAGAGGGUUAUCCGCUCACCGAGAUCGGAAGAGCACACGU
B13: target 1 C7G,C21U (mixed)
RNA 1: CACCCGUGCAAAAAUGCAGGGGUCUAAAACUGAGCGGAUAACCUCUCUAUGG
RNA 2: GGGAAUGGAUCCACAUCUACGAAUUCGUACUAUAGAGAGGUUAUGCGCUCACCGAGAUCGGAAGAGCACACGU
B14: target 1 insU 3' of 21,insG 3' of 10 (mixed)
RNA 1: CACCCGUGCAAAAAUGCAGGGGUCUAAAACUGAGCGGAUAACCUCUCUAUGG
RNA 2: GGGAAUGGAUCCACAUCUACGAAUUCGUACCUAUAGAGAGGUUGAUCCGCUCACCGAGAUCGGAAGAGCACACGU
B15: target 1 insU 3' of 4 (mixed)
RNA 1: CACCCGUGCAAAAAUGCAGGGGUCUAAAACUGAGCGGAUAACCUCUCUAUGG
RNA 2: GGGAAUGGAUCCACAUCUACGAAUUCGUACCAUAGAGAGGUUAUCCGCUUCACCGAGAUCGGAAGAGCACACGU
B16: target 1 U8A,G17U (mixed)
RNA 1: CACCCGUGCAAAAAUGCAGGGGUCUAAAACUGAGCGGAUAACCUCUCUAUGG
RNA 2: GGGAAUGGAUCCACAUCUACGAAUUCGUACCAUAUAGAGGUUAACCGCUCACCGAGAUCGGAAGAGCACACGU
B17: target 1 C2A,G5C (mixed)
RNA 1: CACCCGUGCAAAAAUGCAGGGGUCUAAAACUGAGCGGAUAACCUCUCUAUGG
RNA 2: GGGAAUGGAUCCACAUCUACGAAUUCGUACCAUAGAGAGGUUAUCCCCUAACCGAGAUCGGAAGAGCACACGU
B18: target 1 insA 3' of 7,insG 3' of 4 (mixed)
RNA 1: CACCCGUGCAAAAAUGCAGGGGUCUAAAACUGAGCGGAUAACCUCUCUAUGG
RNA 2: GGGAAUGGAUCCACAUCUACGAAUUCGUACCAUAGAGAGGUUAUCACGCGUCACCGAGAUCGGAAGAGCACACGU
B19: target 1 insA 3' of 10,insC 3' of 3 (mixed)
RNA 1: CACCCGUGCAAAAAUGCAGGGGUCUAAAACUGAGCGGAUAACCUCUCUAUGG
RNA 2: GGGAAUGGAUCCACAUCUACGAAUUCGUACCAUAGAGAGGUUAAUCCGCUCCACCGAGAUCGGAAGAGCACACGU
B20: target 1 U10C,G12U (mixed)
RNA 1: CACCCGUGCAAAAAUGCAGGGGUCUAAAACUGAGCGGAUAACCUCUCUAUGG
RNA 2: GGGAAUGGAUCCACAUCUACGAAUUCGUACCAUAGAGAGUUCAUCCGCUCACCGAGAUCGGAAGAGCACACGU
B21: target 1 G15A,A16C (mixed)
RNA 1: CACCCGUGCAAAAAUGCAGGGGUCUAAAACUGAGCGGAUAACCUCUCUAUGG
RNA 2: GGGAAUGGAUCCACAUCUACGAAUUCGUACCAUAGCAAGGUUAUCCGCUCACCGAGAUCGGAAGAGCACACGU
B22: target 1 insG 3' of 11,insA 3' of 6 (mixed)
RNA 1: CACCCGUGCAAAAAUGCAGGGGUCUAAAACUGAGCGGAUAACCUCUCUAUGG
RNA 2: GGGAAUGGAUCCACAUCUACGAAUUCGUACCAUAGAGAGGUGUAUCCAGCUCACCGAGAUCGGAAGAGCACACGU
B23: target 1 insG 3' of 11,insG 3' of 2 (mixed)
RNA 1: CACCCGUGCAAAAAUGCAGGGGUCUAAAACUGAGCGGAUAACCUCUCUAUGG
RNA 2: GGGAAUGGAUCCACAUCUACGAAUUCGUACCAUAGAGAGGUGUAUCCGCUCGACCGAGAUCGGAAGAGCACACGU
B24: target 1 insC 3' of 19,insC 3' of 9 (mixed)
RNA 1: CACCCGUGCAAAAAUGCAGGGGUCUAAAACUGAGCGGAUAACCUCUCUAUGG
RNA 2: GGGAAUGGAUCCACAUCUACGAAUUCGUACCAUCAGAGAGGUUACUCCGCUCACCGAGAUCGGAAGAGCACACGU
B25: target 1 U10A,C21A (mixed)
RNA 1: CACCCGUGCAAAAAUGCAGGGGUCUAAAACUGAGCGGAUAACCUCUCUAUGG
RNA 2: GGGAAUGGAUCCACAUCUACGAAUUCGUACAAUAGAGAGGUAAUCCGCUCACCGAGAUCGGAAGAGCACACGU
B26: target 1 A1U,A9C (mixed)
RNA 1: CACCCGUGCAAAAAUGCAGGGGUCUAAAACUGAGCGGAUAACCUCUCUAUGG
RNA 2: GGGAAUGGAUCCACAUCUACGAAUUCGUACCAUAGAGAGGUUCUCCGCUCUCCGAGAUCGGAAGAGCACACGU
B27: target 1 G13C,G15C (mixed)
RNA 1: CACCCGUGCAAAAAUGCAGGGGUCUAAAACUGAGCGGAUAACCUCUCUAUGG
RNA 2: GGGAAUGGAUCCACAUCUACGAAUUCGUACCAUAGACACGUUAUCCGCUCACCGAGAUCGGAAGAGCACACGU

The target of the data set is T1, EsCas13d, nuclease-dead. The data set can be described thus: crRNA (strand 1, pre-loaded); Mg2+; 40 mM Tris-HCl pH 7.5, 150 mM NaCl, 6 mM MgCl2, 1 mM DTT, 0.1% Tween-20, 0.2 mg/ml BSA; 25 C; 10 min per concentration, then washed. The following applies: tags: His6-TwinStrep-SUMO cleaved; N-terminal SNAP kept (SNAP-Surface 488); label: 3' end held by stalled T7 RNA polymerase.
B1 came in with a Kd of 64 ± 18 nM.
Consider B2, for which binding was put at a Kd of 100 ± 50 nM.
Regarding B3, the affinity, expressed as Kd, was 77 ± 22 nM.
Consider B4, for which the Kd amounted to 15.7 ± 0.9 nM.
In the case of B5, the Kd worked out at 33 ± 4 nM.
In the case of B6, the affinity, expressed as Kd, was 19.1 ± 1.4 nM.
For the molecule B7, the Kd turned out to be 23.6 ± 1.4 nM.
For B8, the Kd came to 49 ± 8 nM. Compared with the last molecule, the Kd is about 2.1-fold higher.
Take B9: the Kd was found to be 80 ± 40 nM.
Take B10: binding was characterised by a dissociation constant (Kd) of 30 ± 9 nM.
B11 yielded a Kd of 64 ± 6 nM.
B12 yielded a Kd of 15.5 ± 0.7 nM.
Consider B13, for which binding was characterised by a dissociation constant (Kd) of 6.7 ± 0.31 nM.
For B14, the Kd was found to be 82 ± 23 nM.
Turning to B15, the equilibrium dissociation constant (Kd) is 8.7 ± 0.7 nM. Compared with the last molecule, the Kd is about 9.4-fold lower.
B16 showed a Kd of 61 ± 8 nM.
Under B17 stands 6.52 ± 0.32 nM.
Under B18 stands 5.33 ± 0.17 nM; under B19, 10.3 ± 0.6 nM.
In turn, B20 displayed a Kd of 24 ± 4 nM.
With B21, the equilibrium dissociation constant (Kd) worked out at 30.5 ± 2.7 nM.
The molecule B22 had a Kd of 94 ± 29 nM.
Molecule B23 came in with a Kd of 57 ± 8 nM.
B24 gave a Kd of 56 ± 11 nM.
In turn, B25 showed a Kd of 33 ± 5 nM.
The molecule B26 came in with a Kd of 15.4 ± 1.7 nM.
B27 displayed a Kd of 52 ± 22 nM.

What is called Kd is the free concentration of one partner at which half of the binding sites on the other are occupied at equilibrium, for simple one-to-one binding.
